The target of this data set is hUBF (upstream binding factor, RNA polymerase I transcription factor) (Homo sapiens) (UniProt P17480). The data set can be described thus: footprint. The settings on record: apparent Kd, half-maximal binding; cooperative, Hill 2.7; 14 mM MgCl2, 50 mM KCl, pH 7.9, 30 C.
hUBF (upstream binding factor, RNA polymerase I transcription factor) (Homo sapiens), sequence (P17480 whole entry): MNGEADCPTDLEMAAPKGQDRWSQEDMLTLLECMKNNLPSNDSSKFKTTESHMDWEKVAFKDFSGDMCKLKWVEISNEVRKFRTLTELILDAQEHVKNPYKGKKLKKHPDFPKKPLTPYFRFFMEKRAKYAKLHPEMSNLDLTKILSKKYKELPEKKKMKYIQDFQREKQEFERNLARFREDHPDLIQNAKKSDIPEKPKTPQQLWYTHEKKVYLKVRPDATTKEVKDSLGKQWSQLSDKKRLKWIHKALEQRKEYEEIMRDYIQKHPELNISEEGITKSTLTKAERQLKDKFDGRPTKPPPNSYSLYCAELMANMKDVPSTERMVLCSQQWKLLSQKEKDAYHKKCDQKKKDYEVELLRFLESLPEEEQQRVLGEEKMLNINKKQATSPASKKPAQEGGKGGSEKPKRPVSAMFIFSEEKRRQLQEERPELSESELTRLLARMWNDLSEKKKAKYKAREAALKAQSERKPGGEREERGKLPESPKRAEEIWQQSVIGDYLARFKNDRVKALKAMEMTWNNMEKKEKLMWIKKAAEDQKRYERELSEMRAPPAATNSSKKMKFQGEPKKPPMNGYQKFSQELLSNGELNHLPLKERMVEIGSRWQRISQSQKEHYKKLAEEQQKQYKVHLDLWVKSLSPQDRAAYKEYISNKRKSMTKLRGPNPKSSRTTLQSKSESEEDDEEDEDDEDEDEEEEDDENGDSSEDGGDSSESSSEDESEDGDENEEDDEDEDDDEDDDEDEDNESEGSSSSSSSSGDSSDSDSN

Take “human rRNA gene promoter fragment -208 to +78 (EcoRI-BstEII of pSBr208)”: the Kd amounted to 0.018 nM.

The values are drawn from patent publication US6500669.
